Measured values from paper PMC5358782, “Affinity purification of human m-calpain through an intrinsically disordered inhibitor, calpastatin” (PLoS ONE, 2017).

Target: inactive C105A human m-calpain heterodimer (C105A large subunit with truncated small subunit) (human, UniProt P17655 20-700; P04632 1-268, C105A, Ca2+-bound during hCSD1 binding. C-terminal His tag of the large subunit omitted. The ΔG2 small-subunit limits are not printed (they are in the cited Hata 2012 paper); the 184-residue small subunit of)
Experiment: BLI; GST-immobilized hCSD1; purified C105A-calpain from the affinity method in solution
Conditions: both partners purified

B1: N-terminal glutathione S-transferase-tagged human calpastatin domain 1 (domain or fragment, UniProt P20810 137-277, looked up)
chain: AVPVESKPDKPSGKSGMDAALDDLIDTLGGPEETEEENTTYTGPEVSDPMSSTYIEELGKREVTIPPKYRELLAKKEGITGPPADSSKPIGPDDAIDALSSDFTCGSPTAAGKKTEKEESTEVLKAQSAGTVRSAAPPQEK
notes: synthetic gene in pGEX-4T-1; GST is fused N-terminally through a linker; the tag can be removed by thrombin; also called GST-hCSD1; GST-tagged hCSD1; source: E. coli BL21(DE3), purified (GSTrap FF); not shown: GST, N-terminal, kept
  Kd: 1.7 nM
